Test results published in patent US10308712B2, “Antibodies that bind human cannabinoid 1 (CB1) receptor” (priority 2014, dated 2019).
Substitutions are numbered along the chain they refer to.

B1: PA2LR3-P3F8: CB1 antibody (antibody, V domains shown)
VH: EVQLQQSGAELVRPGSSVKISCKASGYAFSNYWMNWVKQRPGQGLEWIGQIYPGDGDTNYNGNFKGKATLTADKSSSTAYMQLSSLTSEDSAVYFCARSHGNYFPYWGQGTLVTVSA
VL: DIVLTQSPAIMSASLGERVTMTCTASSSVSSSYLHWYQQKPGSSPKLWIYSTSNLASGVPARFSGSGSGTSYSLTISSMEAEDAATYYCQQWSSYPLTFGAGTKLELK
modifications: PA2LR3-P3F8 Heavy Chain Variable Region; PA2LR3-P3F8 Light Chain Variable Region
notes: CB1 antibody
B2: PA2LR3-P6G7: HC variable SEQ ID NO: 58, LC variable SEQ ID NO: 62; potential agonist IgG (antibody, V domains shown)
VH: B1 VH with Y27F, Y60F, N63K, K67R, T69I, K74I, S77N
VL: B1 VL with Q90H, W92H, S93H, S94R, Y95S, L97P
modifications: PA2LR3-P6G7 Heavy chain variable region; PA2LR3-P6G7 Light chain variable region
B3: PA2LR3-P4B5: CB1 antibody; HC variable SEQ ID NO: 26, LC variable SEQ ID NO: 30 (antibody, V domains shown)
VH: B1 VH with N31Y, N61S, N63R, M81I
VL: B1 VL with T5N, Q90H, W92Y, S93H, S94R, Y95S, L107I
modifications: PA2LR3- P4B5 Heavy chain variable region; PA2LR3- P4B5 Light chain variable region
B4: PA2LR3-P4B1: HC variable SEQ ID NO: 42, LC variable SEQ ID NO: 46; potential agonist IgG (antibody, V domains shown)
VH: B1 VH with Y27F, Y60F, N63K, K67R, T69I, K74I, S77N
VL: B1 VL with D1Q, Q90H, W92Y, S93H, S94R, Y95S
modifications: PA2LR3-P4B1 Heavy chain variable region; PA2LR3-P4B1 Light chain variable region
B5: PA2LR3-P5E7: CB1 antibody (antibody, V domains shown)
VH: B1 VH with Y60F, N63K, K67R, T69I, K74I, S77N
VL: DIVLTQSPTTMAASPGEKITITCSASSSISSNYLHWYQQKPGFSPKLLIYRTSTLASGVPARFSGSGSGTSYSLTISSMEAEDAATYYCHQYHRSPHTFGSGTKLEIK
modifications: PA2LR3-P5E7 Heavy Chain Variable region; PA2LR3-P5E7 Light Chain Variable region
notes: CB1 antibody
B6: 36E12B6C2: hybridoma-derived anti-CB1 antibody; HC variable SEQ ID NO: 18, LC variable SEQ ID NO: 22 (antibody, listed as Mus sp., V domains shown)
VH: QVQLQQSGAELVRPGSSVKISCKASGYEFSYYWMNWVKQRPGQGLQWIGQIYPGDGDTNYNGKFKGKATLTADKSSSTAYMHLTSLTSEDSAVYFCARSGGNPFAFWGQGTLVTVSA
VL: DIQMTQTSSSLSASLGDRVTFSCRASQDISNYLNWYQQKPDGTVKLLIYYTSRLHSGVTSRFRGSGSGTDYSLTISNLEQEDVATYFCQQGHTLPWSFGGGTKLEIK
B7: PA2LR3-P4G10: CB1 receptor binding IgG clone (antibody, V domains shown)
VH: B1 VH with S7F, N31Y, N63K, P105A
VL: B1 VL with Y95N
modifications: PA2LR3-P4G10 Heavy Chain Variable region; PA2LR3-P4G10 Light Chain Variable region
B8: PA2LR3-P4C6: CB1 receptor binding IgG clone (antibody, V domains shown)
VH: B1 VH with N31Y, N63K
VL: B1 VL with L4I, M11V, L107I
modifications: PA2LR3-P4C6 Heavy Chain Variable region; PA2LR3-P4C6 Light Chain Variable region
B9: PA2LR3-P6B12: HC variable SEQ ID NO: 50, LC variable SEQ ID NO: 54; potential allosteric modulator (antibody, V domains shown)
VH: B1 VH with N31Y, N63K, P105A
VL: B1 VL with D1Q, Q90H, W92Y, S93H, S94R, Y95S, T98A
modifications: PA2LR3-P6B12 Heavy chain variable region; PA2LR3-P6B12 Light chain variable region
B10: PA2LR3-P3A8: CB1 antibody (antibody, V domains shown)
VH: B1 VH with N31Y, N63K, F64V, P105A
VL: B1 VL with L4M, Y95N
modifications: PA2LR3-P3A8 Heavy Chain Variable Region; PA2LR3-P3A8 Light Chain Variable Region
notes: CB1 antibody

Columns and labels:
[1] = target: T1, human CB1 expressing TRex-CHO cells (Homo sapiens, UniProt P21554); assay type: cell-based
T1 construct: pcDNA4/TO native full length human CB1 receptor construct was transfected into tetracycline inducible system Trex-CHO and Trex-293 cells; expressed in transfected cells

CB1 TRex-CHO cells = target: T2, CB1 TRex-CHO cells (Homo sapiens, UniProt P21554); assay type: cell-based; details: antibody 300 nM, 1 hour
T2 construct: pcDNA4/TO native full length human CB1 receptor construct was transfected into tetracycline inducible system Trex-CHO and Trex-293 cells; expressed in transfected cells

TRex CHO parental cells = test: Flow cytometry (FACS) binding, parental cells; details: in words
human CB2 = human CB2 (Homo sapiens, UniProt P34972); test: Flow cytometry (FACS) selectivity, human CB2 cells; details: in words
Mouse CB1 = Mouse CB1 (Mus musculus, UniProt P47746); test: Flow cytometry (FACS) cross-reactivity, mouse CB1 cells; details: in words
[2] = test system: Trex-CHO CB1 receptor cells, WIN55,212 induced ERK phosphorylation; test: ERK activation assay (western blot); details: IgG 300 nM, WIN55,212 100 nM

T2 sequence (P21554 whole entry): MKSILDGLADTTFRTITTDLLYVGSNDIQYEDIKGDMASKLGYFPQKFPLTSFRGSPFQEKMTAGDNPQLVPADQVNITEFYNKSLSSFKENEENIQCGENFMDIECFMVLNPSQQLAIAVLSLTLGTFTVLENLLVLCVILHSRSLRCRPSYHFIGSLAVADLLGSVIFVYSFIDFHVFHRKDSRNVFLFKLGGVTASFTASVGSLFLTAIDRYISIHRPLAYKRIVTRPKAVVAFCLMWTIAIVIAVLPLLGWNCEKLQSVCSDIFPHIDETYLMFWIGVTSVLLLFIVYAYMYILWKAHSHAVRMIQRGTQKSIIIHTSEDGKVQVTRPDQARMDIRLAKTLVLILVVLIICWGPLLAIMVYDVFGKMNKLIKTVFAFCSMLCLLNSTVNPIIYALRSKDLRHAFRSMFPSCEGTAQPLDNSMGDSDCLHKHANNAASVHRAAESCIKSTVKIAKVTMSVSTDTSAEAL
T1 sequence (P21554 whole entry): as above
human CB2, sequence (P34972 whole entry): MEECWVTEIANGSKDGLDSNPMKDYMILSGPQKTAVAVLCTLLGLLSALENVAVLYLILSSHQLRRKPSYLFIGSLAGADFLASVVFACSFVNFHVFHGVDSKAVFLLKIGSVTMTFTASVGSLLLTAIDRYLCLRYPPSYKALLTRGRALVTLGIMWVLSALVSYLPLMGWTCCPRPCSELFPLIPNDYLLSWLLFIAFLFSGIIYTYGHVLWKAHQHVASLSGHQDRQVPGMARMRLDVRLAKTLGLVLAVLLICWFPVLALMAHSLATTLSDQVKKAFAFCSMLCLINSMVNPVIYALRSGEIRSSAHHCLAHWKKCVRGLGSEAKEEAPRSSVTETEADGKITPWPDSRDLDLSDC
Mouse CB1, sequence (P47746 whole entry): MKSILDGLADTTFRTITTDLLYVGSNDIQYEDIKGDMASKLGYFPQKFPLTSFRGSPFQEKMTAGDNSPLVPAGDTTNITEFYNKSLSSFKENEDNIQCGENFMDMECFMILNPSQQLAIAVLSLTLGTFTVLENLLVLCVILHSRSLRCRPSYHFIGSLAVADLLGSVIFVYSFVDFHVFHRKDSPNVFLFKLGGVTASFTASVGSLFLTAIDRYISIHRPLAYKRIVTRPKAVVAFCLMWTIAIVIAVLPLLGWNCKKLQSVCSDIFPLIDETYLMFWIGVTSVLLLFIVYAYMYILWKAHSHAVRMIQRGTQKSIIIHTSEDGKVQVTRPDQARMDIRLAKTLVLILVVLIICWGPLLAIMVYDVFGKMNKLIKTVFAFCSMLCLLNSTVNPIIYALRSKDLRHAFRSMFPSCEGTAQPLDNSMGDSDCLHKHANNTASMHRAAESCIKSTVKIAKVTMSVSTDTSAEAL

Molecule	induction of CB1 receptor internalization by the substance alone (CB1 TRex-CHO cells)	other results
Cc1c(C(=O)NN2CCS(=O)(=O)CC2)nn(-c2ccc(Cl)cc2Cl)c1-c1ccc(C#CCCC#N)cc1 [AM6545, reference compound]		effect on cAMP levels ([1]; 1.5 μM or 5 μM forskolin stimulated TRex-CHO CB1 cells, no exogenous agonist): did not affect cAMP levels
B1	do not induce	
B2	do not induce	
B3	do not induce	
B4	do not induce	
B5	do not induce	
B6		binding to parental TRex CHO (TRex CHO parental cells): not parental TRex CHO; cross-activity / selectivity human CB2 (human CB2): do not have cross-activity; cross-activity / cross-reactivity Mouse CB1 (Mouse CB1): do not have cross-activity; mechanism (inverse agonist or neutral antagonist) ([1]; 5 μM forskolin, no agonist (Example 11)): inverse agonists; blocking of WIN55,212 induced ERK phosphorylation [2]: blocked
B7	do not induce	
B8	do not induce	
B9	do not induce	
B10	do not induce	
